Measurements as given in the nanobody polyreactivity screen of Harvey et al. (2022).

Assay: yeast display, Sf9 membrane polyspecificity reagent, FACS + sequencing; frameworks hold sequencing errors
Outline: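 In a synthetic yeast display library (Saccharomyces cerevisiae BJ5465), nanobody expression was induced with galactose for 36–48 hours. FACS gates were set low and high (top ~1%) using anti-HA fluorescence for expression and streptavidin fluorescence for binding of the Sf9 membrane reagent. Each polyreactivity label is drawn from the gate of origin.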

Sequence	polyreactivity (PSR sort gate)
QVQLVESGGGLVQAGGSLRLSCGASGYISVGYAMGWYRPAPGKERELVAAITESGGSTYYADSVKGRFTISRDNAKNTVYLQMNSLKPEDSAVYYCAADVIYEDSMDYWGQGTQVTVSS	low polyreactivity
QVQLVESGGGLVQAGGSLRLSCAASGRIFKRNAMGWYRQAPGKERELVATISGSGGSTYYADSVKGRFTISRDNAKNTVYIQMNRLQPEDTAVYYCSATGFFARLSTIYYYWGQGTQVTVTS	high polyreactivity
QVQLVESGGGLVQAGGSLRLSCAASGFTFGDYVMGWYRQAPGKERELVAAITTSGTRTSYADSVKGRFTISRDNAKNTVYLQMNSLKPEDTAVYYCAAEHTNYYYFWQAHYYWGQGTQVTVSS	high polyreactivity
QDQLVESGGGLVQAGGSLRLSCAASGSTLFIYARGWYRQAPGKEREFVAGISYSGGSTYYADSVKGRFTISRDNAKNTVYLQMNSLKPEDTAVYYCAAATVYLSWYYWGQGTQVTVSS	high polyreactivity
QVQLVESGGGLVQAGGSLRLSCAASGRTFVLYAMGWYRQAPGKERELVAAIRQSDVSTYYADSVKGRFTISRDNAKNTVFLQMNSLKPEDTAVFYCAARNRYRRRYYYWGQGTQVTVSS	high polyreactivity
QVQLVESGGGLVQAGGSLRLSCAASASTVSRYAMGWYRQAPGKEREVVAGISWSGGNTYSADSVKGRFTISRDNAKNTVYLQMNSLKPEDTAVYYCAADFLDYWGVYGWAEYEYWGQGTQVTVSS	low polyreactivity
QFQLVESGGGIVQAGGSLRIAVRPPDLPSTLNHLGWSRQAPGKERSVVAAITRGGSTNYADSVKGRFTISRDNAKNTVYLQMNSLKQEDTAVYYCAAPYAGWRDGGDYWGQGTQVTVSS	low polyreactivity
QVQLVESGGGLVHAGGSLLLSCSASGRTFDSNAMGWSRQAPGKERELVAAISGSGDTTYYADSVKGRFTISRDNAKNTVYLQMNSLKPEDTAVYYCADDHDSSGSGYEYWGQGTEVTVSS	low polyreactivity
QVQLVESGGGLVQAGGSLRLSCAASGGTLKYYAMGLYRQAPGKERELVATISSRGGSTYYADSVKGRFTISRDNAKNTVYLQMNSLKPEDTAVYYCARRYWVQSRYPELDYWGQGTQVTVSS	high polyreactivity
QVQLVESGGGLVQAGGRLRLSCAASGSTFSFNAMGWYRQAPGKERELVAAIRVSSGTTYYADSVKGRFTISRDNAKNTVYLQMNSLKPEDTAVYYCAARYYYDWRQYGYWGQGTQVTVSS	high polyreactivity
QVHLVESGGGLVQAGRSLRLSCAASGFIFKPYAMVRYRQAPGKERELVAAITVNGGTTYYADSVKARFTISRDNAKNTVYLQMNSLKPEDTAVYYCNRGRPGGPSWYHYDYWGQGTQVTVSS	high polyreactivity
QVQLVESGGGLVQAGGSLRLSCAASGSTSDENAMGWYRQAPGKERELVASITVSGGSTSYADSVKGRFTISRDNAKNTVYLQMNSLKPEDTAVYYCNTDFGQAHTLSWYEDMDYWGQGTQVTVSS	low polyreactivity
QVQLVESGGGLVQSGGSLRLSCAASGFTFSWYAMGSYRQAPGKERELVAAISWDGDSTYYADSVKGRCTISRDNAKNTVFLQMNSLKPEETAVYYCAADFSYYWDGYDYWGQGSQVTVSS	high polyreactivity
QVQLVESGGGLVQAGGILRLSCAASGITFVRNAMGWYRQAPGKDREFVAAINSIVGRTYYADSVKGRFTISRDNAKNTVYLQMNSLKPEDTAVYDCAADSNVRYGMDYWGLGTQVTVSS	low polyreactivity
QVQLVESGGGLVQAGGSLRLSCAASGRTFVFYGMGWYRQAPGKEREFVAAITRRGGSTYYADSVKGRFTISRDNAKNTVYLQMNSLKPEDTAVYYCAAGYSSRYRGGLDYWGQGTQVTVSS	high polyreactivity
QVQLVESGGGLVQAGGSLRLSCAASGINFPGYAMGWYRQAPGKERELVAVIRKSGTSTYYADSVKGRFTISRDNAKNTVYLQMNSLKPEDTAVYYCAAGGPSTLDDYWGQGTQVTVSS	low polyreactivity
QVQLVESGGGLVQAGGSLRLSCAASGRIFAYNALGWYRQAPGKERELVAAISWSGSSTYYADSVKGRFTISRDNAQNRVYLQMNSLTPEDTAVYYCAATPWYYYSTSYAYYDWGQGTQVTVSA	high polyreactivity
QVQLVESGGGLVQAGGSLRLSCAASGRTFVNYAMGWYRQAPGKERELVAAISGGGGTNYADSVKGRFTISRDNAKNTVYLQMNSLKPEDTAVYYCAADTNGYEFDYWGQGTQVTVSS	low polyreactivity
QFQLVESGGRLVQPGGSLRLSCAASGGIFYGYAMGWYRKAPGKERELVAAISSTGGRTYYADSVKGRFTISRDNAKNTVYLQMNSLKPEDTAVSYCAAEDFTRQFEYWGQGTQVTVSS	low polyreactivity
QVQLVDSGGGLVQAGGSLRLSCAASGFIFRRNAMGWYRQAPGKERELVAAITGGGGSTYYADSVKGRFTISRDNAKNTVYLQMNSLKPEDTAVYYCNALPARRRWQVDYWGQGTQVTVSS	high polyreactivity
QVQLVESGGGLVQAGGSLRLSCAASGITFAEYAMGWYRPAPGKERELVAAINGGGGSTYYADSVKGRFTISRDYAKNTVYFQMNSLKPEDTAVYYCAADGYPGDYDYWGQGTQVTVSS	high polyreactivity
QVQLVESGGGLVQAGGSLRLSCAASGRTFVPYTMGWYRQAPGKERELVAAISRSGARTYYADSVKGRFTISRDNAKNTVYLQMNSLKPEDTAVYYCVVIARYGYDYWGQGTQVTVSS	high polyreactivity

Sequence	polyreactivity (PSR sort gate)
QDQLVESGGGLVQAGGSLRLSCAASGFILNWYAMGVYRQAPGKERELVAAISWTTSDTYYADSVKGRFTISRDYAKNTVYLQMNSLKPEDTAVYYCNAKFYAYYVTFVLHYDYWGHGTQVTVSS	low polyreactivity
QFQLVESGGGLVQAGGSLRLSCAASGIIFRYYGMGWYRQAPGKERELVARILWTGGSTYYADSVKGRFTISRDNAKNTVYFQMNSLKPEDTAVYYSAADIWQYSRIANYHPYEYWGQGTQVTVSS	low polyreactivity
QEQHVESGGGLVQAGGSLRLSSAASVNIIGFYAKGWYREAPGKESEFVAAISFGTDRTYYADSVKGRFTISRENAKNTVYLQMNSLKPEDTALYYCNRRCNNGVRYGECDYWGQGTQVTVSS	high polyreactivity
QVQRVESGGGLVQAGGSLRLSCAASGITFDRYAMGWYRQAPGKETELVAAISSGGRTNYADSVKGRFTISRDNAKNTVYLQMNSLKPEDTEVYYCSKRRARSGQDYDYWGQGTQVTVSS	low polyreactivity
QVQLVESGGGLVQAGGSLRLSCAASGITIYIYAMGWYRQAPGKERELVAAISDVGSTHYADSVKGRFTISRDNAKNTVYLQMNSLKPEDTAVYYCNADYYWFFVFFDYDYWGQGTQVSVSS	low polyreactivity
QVQLVESGGGLVQAGGSLRLSCAASGRIFGHYTMGWYRQAPGKERELVAAISWGGVRTYYADSVKGRFTISRDNAKNTVYLQMNSLKPEVTAVYYCAARWRRYVYPDGHLFWYDYWGQGTQVTVSS	high polyreactivity
QVQLLESGGGLVQAGASLRLSCAASGSTFSYYAMGWYRQAPGKERELDAAISWRGSSTYYADSVKRRITISRDNANNTVYLQMNSLTPEATAVYYCAAGYPGRVSGYLYGTRATYYYWGQGTQVTVSS	high polyreactivity
QVQHVESVGGLVQAGGSLRLSCAASGSTFGYYAMGWYRQAPGKERELVATISATGGSTYYADSVKGRFTISRDNAKNTVYLQMNSLKPEDTAVYYCNAEYDRGNEYDYWGQGTQVTVSS	low polyreactivity
QVQLVESGGGLVQAGGSLRLSCAASGRTLRINTMGWYRQAPGKERELVADITSSGGSTYYADSVKGRFTISRDNAKNTVYLQMNSLKPEDTAVYYCAADPIDIYYWEFDYLGQGTQVTVSS	low polyreactivity
QVQLVESGGGLVQAGGSLRLSCAASGRIRGNVMGWYRQAPGKERELVAAISKSGGSTYYADSVKGRFTISRDNAKNTVYLQMNSLKPEDTAVYYCAAAYGQYTSYYRFGSWGQGTQVTVSS	high polyreactivity
QVQLVESGGGLVQAGGSLRLSCAASGRIFLKYAMGWYRQAPGKERELVAAISSSGGSTYYADSVKGRFTISRDNAMNTVYLQMNSLKPEDTAVYYCNALYKRGSSYFIGDGYWGQGTQVTVSS	high polyreactivity
QVQLVESGGGLVQAGGSLRLSCAASGSISVWYVMGWYRQAPGKERELVAAITRSGGSTFYADSVKGRLTISRDNAKNTVYLQMNSLKPEDTAVYYCAADVGVAWGYGYWGQGTQVTVSS	low polyreactivity
QVQLVESGGGLVQAGGSLRLSCAASGSIFNYTMGWYRQGPAQERQLVAVISRSGGRTYYADSVKGRFTISRDNAKNTVYLQMNSLKPEDTAVYYCATDGHNGYYGRYDYWGHGTQVTVSS	high polyreactivity
QVQLVESGGGLVQAGGSLRLSCAASGSTIPSNAMGWYRQAPGKERELVASITYTDGTTRYADSVKGRFTISRDNAKNTVYLQMNSLKPEDTAVYYCNAVYYREGMDYWGQGTQVTVSS	low polyreactivity
QVQLVESGGGLVQAGGSLRLSCAASGRILYVYVMGWYRQGPGKASELVAAISRRGGGTSYADSVKGLFTISRDNAKNTVYLQLNSLKPEDTTVYYCAASSTEFPTDYLAIDDYWGQGTQVTVSS	low polyreactivity
QVQLVESGGGLVQAGGSLRLSCAASGSTFIFNAMGWYRQAPGKERELVAGISSGSPYYADSVKGRFTISRDNAKNTVYLQMNSLIPEDTAVYYCATKLRRWRFYAAYDYWGQGTQVTVSS	high polyreactivity
QVQLVESGGGLVQAGGSLRLSCAASGSIFRGYAMGWYIQAPGKERELVAAITSRGGSTYYADSVKGRFTISRDNAKNTVYLQMNSLKPEDTEVYYCNKRVYYPWGQGTQVTVSS	high polyreactivity
QVQLVESGGGLVQAGGSLRLSCAASGFTVAYYAMGWYRQAPGKERELVAAITGSGGRTYYADSVKGRFTISRDNAKNTVYLQMTSLKPEDTAVYYCAALTGPYKAQVHGGHTPLDYWGHGTQVTVSS	low polyreactivity
HVQLQESGGGLVQAGVSLRLSCAASGNISYSRNMGWYRQAPGKERELVAAIDRGAITYYADSVKGRFTISRDNAKNTVYLQIYSLKPEDTAVYYCAAEYHDRWDHRYWGQGTQVTVSS	high polyreactivity
QVQLVESGGGLVQAGGSLRLSSAASAGIFAPNAMGLYRQAPGTEREFVAAISTGGGSTRYADSVKGRFTISRDNAKNTVYLQMNSLKPEDTAVYYCAATRVGVRRMDYWGQGTQVTVSS	low polyreactivity
QDQLVESGGGLVQAGGSLRISSAASGRTYKSNAMGWYRQAPGKERELVATISRGGGSTYYADSVKGRFTISRDNAKNTVYLQMNSLKPEDTAVYYCAKGSNSYLRYHYTYPYDYWGQGTQVTVSS	high polyreactivity
